Assay results published in PMC8246641.
Ends that are not written are not given here.

Target: taxol-stabilized microtubules (MTs) (UniProt P02550)
Experiment: co-sedimentation

Kd: 996 nM
B1: GST-ABS6^329–387 (DUF4005 domain of ABS6/AtIQD16, N-terminal GST tag) (domain or fragment)
chain: {GST}-RSASPRIPCSPSSMQPNYMSATESAKAKARTQSTPRRRPMTAKKRLCYAEEESLRSPSF
modifications: cysteine pairing not given here
